Results taken from PMC10803776, “Structure of the M. tuberculosis DnaK−GrpE complex reveals how key DnaK roles are controlled” (Nature Communications, 2024).
Ends that are not written are not given here.

How the values were obtained:
[1] = molecular target: T1, Mycobacterium tuberculosis DnaK, full length, wild type (Mycobacterium tuberculosis, UniProt P9WMJ9 1-625); assay: ITC; conditions: both partners purified
T1 construct: DnaK (Hsp70 chaperone) of Mycobacterium tuberculosis, full length; also called Mtb DnaK; WT DnaK

[2] = molecular target: T2, Mycobacterium tuberculosis DnaK Mut-1 (Y106A, L107A) (Mycobacterium tuberculosis, UniProt P9WMJ9 1-625, Y106A | L107A); assay: ITC; conditions: both partners purified
T2 construct: DnaK of Mycobacterium tuberculosis, full length, with two alanine substitutions in NBD subdomain IA

[3] = molecular target: T3, Mycobacterium tuberculosis DnaK, wild type, full length (Mycobacterium tuberculosis, UniProt P9WMJ9 1-625); assay: SEC-MALS; conditions: both partners purified
T3 construct: DnaK (Hsp70 chaperone) of Mycobacterium tuberculosis, full length; also called Mtb DnaK; WT DnaK

[4] = molecular target: the molecule itself; assay: cryo-EM structure; DnaK 2 μM, DnaJ2 4 μM, GrpE 4 μM, telaprevir 200 μM in 25 mM Tris pH 8.0, 40 mM NaCl, 10 mM MgCl2; no nucleotide; 3.7 Å map
[5] = molecular target: T3, Mycobacterium tuberculosis DnaK, wild …; assay: fluorescence polarisation; direct binding of F-NR to DnaK in the presence of ADP or without nucleotide; conditions: both partners purified

B1: Mycobacterium tuberculosis GrpE, full length, wild type (natural protein)
chain: MTDGNQKPDGNSGEQVTVTDKRRIDPETGEVRHVPPGDMPGGTAAADAAHTEDKVAELTADLQRVQADFANYRKRALRDQQAAADRAKASVVSQLLGVLDDLERARKHGDLESGPLKSVADKLDSALTGLGLVAFGAEGEDFDPVLHEAVQHEGDGGQGSKPVIGTVMRQGYQLGEQVLRHALVGVVDTVVVDAAELESVDDGTAVADTAENDQADQGNSADTSGEQAESEPSGS
notes: GrpE (nucleotide exchange factor) of Mycobacterium tuberculosis, full length; also called Mtb GrpE; WT GrpE
Q: With B1 as the binder, how does the Kd [1] read?
A: The Kd was 0.24 µM.

Q: What about the “stoichiometry N” value [1] of the same binder?
A: Its value is 0.69.

Q: And the Kd [2]?
A: Its Kd is 1.07 µM.

Q: And the “stoichiometry N” value [2]?
A: The value was 0.13.

B2: Mycobacterium tuberculosis GrpE, wild type, full length (natural protein)
chain: MTDGNQKPDGNSGEQVTVTDKRRIDPETGEVRHVPPGDMPGGTAAADAAHTEDKVAELTADLQRVQADFANYRKRALRDQQAAADRAKASVVSQLLGVLDDLERARKHGDLESGPLKSVADKLDSALTGLGLVAFGAEGEDFDPVLHEAVQHEGDGGQGSKPVIGTVMRQGYQLGEQVLRHALVGVVDTVVVDAAELESVDDGTAVADTAENDQADQGNSADTSGEQAESEPSGS
notes: GrpE (nucleotide exchange factor) of Mycobacterium tuberculosis, full length, 235 residues (C-terminal residues printed as aa 188-235); also called Mtb GrpE; WT GrpE
Q: For B2, which “stoichiometry N” value [3] is on record?
A: The value was 2 GrpE per DnaK.

Q: And the “stoichiometry N” value [4]?
A: Its value is 2.

B3: N-terminal fluorescein-labeled NR peptide (NRLLLTG) (peptide)
peptide: fluorescein-NRLLLTG
notes: model peptide substrate of DnaK; also called F-NR; fluorescently tagged NR; source: bought: PEPTIDE 2.0 (purity >95%)
Q: Does B3 bind [5]?
A: Result: binds
